Data on seven molecules can be found in patent US20110142851A1 (EMERGENT PRODUCT DEVELOPMENT SEATTLE, published 2011).

Sequences and labels used below:
B1: hu HIL6 AFH monomer (other)
chain: PEEPQLSCFRKSPLSNVVCEWGPRSTPSLTTKAVLLVRKFQNSPAEDFQEPCQYSQESQKFSCQLAVPEGDSSFYIVSMCVASSVGSKFSKTQTFQGCGILQPDPPANITVTAVARNPRWLSVTWQDPHSWNSSFYRLRFELRYRAERSKTFTTWMVKDLQHHCVIHDAWSGLRHVVQLRAQEEFGQGEWSEWSPEAMGTPWTESRSPPAGGGSDVAAPHRQPLTSSERIDKQIRYILDGISALRKETCNKSNMCESSKEALAENNLNLPKMAEKDGCFQSGFNEETCLVKIITGLLEFEVYLEYLQNRFESSEEQARAVQMSTKVLIQFLQKKAKNLDAITTPDPTTNASLLTKLQAQNQWLQDMTTHLILRSFKEFLQSSLRALRQM
B7: sIL6R Fc dimer (Fc fusion, UniProt P08887 20-358, looked up)
chain: LAPRRCPAQEVARGVLTSLPGDSVTLTCPGVEPEDNATVHWVLRKPAAGSHPSRWAGMGRRLLLRSVQLHDSGNYSCYRAGRPAGTVHLLVDVPPEEPQLSCFRKSPLSNVVCEWGPRSTPSLTTKAVLLVRKFQNSPAEDFQEPCQYSQESQKFSCQLAVPEGDSSFYIVSMCVASSVGSKFSKTQTFQGCGILQPDPPANITVTAVARNPRWLSVTWQDPHSWNSSFYRLRFELRYRAERSKTFTTWMVKDLQHHCVIHDAWSGLRHVVQLRAQEEFGQGEWSEWSPEAMGTPWTESRSPPAENEVSTPMQALTTNKDDDNILFRDSANATSLPVQD
notes: not shown: Fc

Assay [1] deals with T1, human gp130-Fc chimera (R&D Systems) (human, UniProt P40189 23-619).
T1 construct: Bought product; also called Human gp130-human IgG Fc fusion protein; soluble gp130; not shown: human IgG Fc
T1 sequence (looked up): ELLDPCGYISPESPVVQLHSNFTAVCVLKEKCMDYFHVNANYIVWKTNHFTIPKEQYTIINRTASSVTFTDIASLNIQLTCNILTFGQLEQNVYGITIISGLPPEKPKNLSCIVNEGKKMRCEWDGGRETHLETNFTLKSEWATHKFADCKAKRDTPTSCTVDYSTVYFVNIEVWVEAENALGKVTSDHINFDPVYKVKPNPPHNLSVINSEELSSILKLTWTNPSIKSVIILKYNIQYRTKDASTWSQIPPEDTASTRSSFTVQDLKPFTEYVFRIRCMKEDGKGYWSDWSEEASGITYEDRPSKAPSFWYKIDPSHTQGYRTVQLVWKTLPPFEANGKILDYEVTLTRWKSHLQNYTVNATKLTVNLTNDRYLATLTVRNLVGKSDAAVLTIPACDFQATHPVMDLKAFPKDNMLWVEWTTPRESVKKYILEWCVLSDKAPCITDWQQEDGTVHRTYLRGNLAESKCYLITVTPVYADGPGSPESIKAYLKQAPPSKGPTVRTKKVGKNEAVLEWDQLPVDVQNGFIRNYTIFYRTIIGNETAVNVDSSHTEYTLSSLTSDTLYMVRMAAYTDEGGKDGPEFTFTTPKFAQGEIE
Briefly: SPR Biacore T100, binder captured by anti-human Fc. A general note: Surface plasmon resonance follows binding to a sensor surface in real time, without labels.

Assay [2] addresses B1. As to the kind of experiment: SPR Biacore T100, binder captured by anti-human Fc. On the procedure: (§1) Binding affinities and kinetic rate constants of interaction of hyper-IL6 (HIL6; monomer or dimer), and its components IL6 and sIL6R, with different anti-HIL6 binding domains in scFv, SMIP, Xceptor and reverse Xceptor formats were determined using a Biacore® T100 instrument (GE Healthcare, Piscataway, N.J.).
(§2) Anti-HIL6 SMIPS, Xceptors, and reverse Xceptors were captured by a monoclonal mouse anti-human Fc, which was covalently conjugated to a carboxylmethyl dextran (CM4) surface via amines using N-ethyl-N′-(3-dimethylaminopropyl)-carbodiimide hydrochloride and N-hydroxysuccinimide. The unoccupied sites of the activated surface were blocked by ethanolamine. […] In every cycle, three different HIL6 binders were captured on flow cells 2, 3 and 4, while flow cell 1 was used as the reference cell. For each cycle, a single concentration of a single HIL6-related molecule was injected for 150 seconds at 35 microliters per minute, and then allowed to dissociate for 300 seconds. At the end of the cycle, the surface was regenerated gently using 3M MgCl₂, which dissociates protein bound to anti-hFc capture antibody. Multiple cycles were performed to study binding of monomeric or dimeric HIL6 at different concentrations, in the range of 0-100 nM, for each set of three HIL6 binders captured. […] The experiment was performed at 25° C. Signal associated with binding to the reference cell was used to subtract for bulk refractive changes and blank (buffer-only) injections were used to correct for drift and system noise. The kinetic parameters and affinities were determined using BIAevaluation software. Anti-HIL6 scFv molecules were analyzed in the reverse orientation using a dimeric human HIL6/mouse IgG Fc fusion protein captured by an immobilized rabbit polyclonal anti-mouse IgG Fc antibody on the surface and injecting different concentrations of scFv over the surface. For the HIL6 components IL6 (eBioscience, catalog no. 14-8069) and sIL6R, a single 100 nM injection was performed to obtain a qualitative assessment of binding.

The target in assay [3] is T2, recombinant human IL6 (human, UniProt P05231 30-212).
T2 construct: also called rhIL6; IL6 monomer
Briefly: SPR Biacore T100, binder captured by anti-human Fc. On the procedure: as §1, §2

The target of assay [4] is T3, hu HIL6 Fc dimer (dimeric human HIL6/mouse IgG Fc fusion protein) (human).
T3 construct: also called human hyper-IL6 (IL6R-IL6-mIgG); dimeric HIL6
T3 chain: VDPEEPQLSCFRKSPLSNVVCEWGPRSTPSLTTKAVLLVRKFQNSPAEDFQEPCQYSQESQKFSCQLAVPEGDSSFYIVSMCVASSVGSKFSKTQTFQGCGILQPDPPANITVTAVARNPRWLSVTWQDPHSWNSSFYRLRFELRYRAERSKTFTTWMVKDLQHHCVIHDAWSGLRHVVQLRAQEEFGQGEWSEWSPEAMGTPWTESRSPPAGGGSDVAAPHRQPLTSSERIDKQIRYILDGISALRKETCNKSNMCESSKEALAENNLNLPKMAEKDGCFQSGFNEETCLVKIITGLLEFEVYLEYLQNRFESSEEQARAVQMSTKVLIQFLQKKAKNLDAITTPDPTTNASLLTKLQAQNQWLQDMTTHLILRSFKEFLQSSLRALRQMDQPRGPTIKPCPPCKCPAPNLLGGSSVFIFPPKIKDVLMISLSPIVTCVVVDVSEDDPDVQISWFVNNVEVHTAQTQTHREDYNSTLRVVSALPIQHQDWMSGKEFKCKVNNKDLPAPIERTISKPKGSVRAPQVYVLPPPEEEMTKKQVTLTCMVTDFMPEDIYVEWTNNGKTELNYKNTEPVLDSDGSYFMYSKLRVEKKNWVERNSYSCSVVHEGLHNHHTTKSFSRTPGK
As to the kind of experiment: SPR Biacore T100, binder captured by anti-human Fc. On the procedure:
as §1, §2

Assay [5] deals with T3, hu HIL6 Fc dimer (dimeric human …). Briefly: SPR Biacore T100, HIL6-mouse Fc captured by anti-mouse Fc, scFv injected.
In assay [6] the target is B7. Briefly: SPR Biacore T100, binder captured by anti-human Fc. As for the experimental part: as §1, §2

The term Kd denotes the concentration at which binding is half-saturated. Take B1: in assay [1], the Kd is 0.68 nM.

B2: TRU(S6)-1025 (Fc fusion)
chain: EVQLLESGGGLVQPGGSLRLSCAASGFTFSHYGMHWVRQAPGKGLEWVSSIYPGMTQYADSVKGRFTISRDNSKNTLYLQMNSLRAEDTAVYYCARDRGSGIDAFDIWGQGTMVTVSSGGGGSGGGGSGGGGSQSELTQPPSVSVSPGQTATVSCSGEKLGDRYAWWYQQKAGQSPVLVIYQDTKRPSGVPDRFSGSNSGTSASLVISGPQSEDEADYYCAAWDDSLKGVVFGGGSKLTVLTGEPKSSDKTHTCPPCPAPEAAGAPSVFLFPPKPKDTLMISRTPEVTCVVVDVSHEDPEVKFNWYVDGVEVHNAKTKPREEQYNSTYRVVSVLTVLHQDWLNGKAYACAVSNKALPAPIEKTISKAKGQPREPQVYTLPPSRDELTKNQVSLTCLVKGFYPSDIAVEWESNGQPENNYKTTPPVLDSDGSFFLYSKLTVDKSRWQQGNVFSCSVMHEALHNHYTQKSLSLSPGK
notes: SMIP (scFv - linker - CH2CH3)
Turning to B2, the results for the Kd in assay [2] and in assay [4] were 2.6 nM and 4.4 nM, respectively. For the same molecule, the binding result in assay [3] is listed as “no binding (tested: 100 nM)”.

B3: SEQ ID NO: 671 (scFv) (scFv)
scFv: EVQLLESGGGLVQPGGSLRLSCAASGFTFSFYQMHWVRQAPGKGLEWVSGIYPSGGYTKYADSVKGRFTISRDNSKNTLYLQMNSLRAEDTAVYYCARDLGYGSSWYYFDYWGQGTLVTVSSGGGGSGGGGSGGGGSQSALTQPASVSGSPGQSITISCSGTDSDVGGYNHVSWYQQHPGKAPKLIIYDVDHRPSGISNRFSGSKSGNTASLTISGLQAEDEADYYCSSYRSGSTYVFGTGTKVTVL
Take B3: binding in assay [5] was put at a Kd of 1.04 nM.

B4: TRU(S6)-1029 (Fc fusion)
chain: EVQLLESGGGLVQPGGSLRLSCAASGFTFSSYWMHWVRQAPGKGLEWVSSIYPSGGSTEYADSVKGRFTISRDNSKNTLYLQMNSLRAEDTAVYYCAKGIWFDPWGQGTLVTVSSGGGGSGGGGSGGGGSQDIQMTQSPATLSASVGDRVTITCRSSQRISGYLNWYQQQPGKAPKLLIYAASTLQSGVPSRISGSGSGTDFSLIISSLQPEDVATYYCQQSYSPPFTFGGGTKVEIKTGEPKSSDKTHTCPPCPAPEAAGAPSVFLFPPKPKDTLMISRTPEVTCVVVDVSHEDPEVKFNWYVDGVEVHNAKTKPREEQYNSTYRVVSVLTVLHQDWLNGKAYACAVSNKALPAPIEKTISKAKGQPREPQVYTLPPSRDELTKNQVSLTCLVKGFYPSDIAVEWESNGQPENNYKTTPPVLDSDGSFFLYSKLTVDKSRWQQGNVFSCSVMHEALHNHYTQKSLSLSPGK
notes: SMIP (scFv - linker - CH2CH3)
Turning to B4, binding in assay [2] was characterised by a dissociation constant (Kd) of 180 nM. For the same molecule, the binding result in assay [6] is given as “no binding (tested: 100 nM)”.

B5: SEQ ID NO: 679 (scFv) (scFv)
scFv: EVQLLESGGGLVQPGGSLRLSCAASGFTFSWYLMHWVRQAPGKGLEWVSGIWPSGGHTLYADSVKGRFTISRDNSKNTLYLQMNSLRAEDTAVYYCAREPLLWFGELSYNWFDPWGQGTLVTVSSGGGGSGGGGSGGGGSQDIQMTQSPSSVSASVGDRVTITCRASQGISSWLAWYQQKPGKAPKLLIYAASSLQSGVPSRFSGSGSGTDFTLTISSLQPEDFATYYCQQANSFPLTFGGGTKVEIK
As to B5, in assay [5], binding was put at a Kd of 1.46 nM.

B6: TRU(S6)-1013 (Fc fusion)
chain: EVQLLESGGGLVQPGGSLRLSCAASGFTFSGYVMGWVRQAPGKGLEWVSSISPSGGYTLYADSVKGRFTISRDNSKNTLYLQMNSLRAEDTAVYYCARAFSTRWYWGAFDIWGQGTMVTVSSGGGGSGGGGSGGGGSQDIQMTQSPATLSLSPGERATLSCRASQSVRSYLAWYQQKPGQAPRLLIYDASNRATGIPARFSGSGSGTDFTLTITSLQPEDIATYYCQQYDNLPLTFGGGTKVEIKTGEPKSSDKTHTCPPCPAPEAAGAPSVFLFPPKPKDTLMISRTPEVTCVVVDVSHEDPEVKFNWYVDGVEVHNAKTKPREEQYNSTYRVVSVLTVLHQDWLNGKAYACAVSNKALPAPIEKTISKAKGQPREPQVYTLPPSRDELTKNQVSLTCLVKGFYPSDIAVEWESNGQPENNYKTTPPVLDSDGSFFLYSKLTVDKSRWQQGNVFSCSVMHEALHNHYTQKSLSLSPGK
notes: SMIP (scFv - linker - CH2CH3)
In the case of B6, the figures for the Kd in assay [2] and in assay [4] were 31 nM and 200 nM, respectively. The binding result in assay [3] and in assay [6] was “no binding (tested: 100 nM)” in each case.
In the case of B7, the binding result in assay [1] is reported as “no binding (tested: 100 nM)”.
